Test [1] has as its target mouse Sptlc1 (serine palmitoyl-CoA transferase subunit 1) (mouse) (UniProt O35704). Briefly: cell-based or functional assay.
Test [2] relates to CIP.choline-phosphate cytidylyltransferase (CT). To be noted: administration of L-cycloserine; cited from earlier work.
Test [3] has as its target mouse Sptlc2 (serine palmitoyl-CoA transferase subunit 2) (mouse) (UniProt P97363). Briefly: cell-based or functional assay.

With “mouse Sptlc2 (serine palmitoyl-CoA transferase subunit 2) (from UniProt P97363 1-560) (enzyme)”, the decrease in Sptlc2 protein mass in Sptlc1+/- mouse liver against WT (Western blot of liver homogenate) in test [1] is 53%.

For the compound `N[C@@H]1CON=C1O` [L-cycloserine], the “stimulation of CT activity” value in test [2] was 74%.

“mouse Sptlc1 (serine palmitoyl-CoA transferase subunit 1) (from UniProt O35704 1-473) (enzyme)”: the decrease in Sptlc1 protein mass in Sptlc2+/- mouse liver against WT (Western blot of liver homogenate) in test [3] came to 70%.
